From PMC12269497, “Dimerization of the BAR domain–containing protein FAM92A modulates lipid binding and interaction with CBY1” (The Journal of Biological Chemistry, 2025) come the findings set out here.

In data set [1] the target is mouse FAM92A BAR domain Mu4 (K169, K183, K194 to glutamic acid) (mouse). Kind of data set: SEC-MALS; typically 200 μl at 70 μM injected; Superose 12 10/300 GL; 50 mM Tris pH 7.5, 1 mM DTT, 1 mM EDTA, 100 mM NaCl. For orientation: In gel filtration, larger molecules generally elute earlier.
Data set [2] has as its target Trx-tagged full-length mouse FAM92A (mouse). Described as above.
Data set [3] concerns the target mouse FAM92A BAR domain Mu2 (R201, R203, R205 to glutamic acid) (mouse). The description is as above.
Data set [4] deals with mouse FAM92A BAR domain Mu3 (R108, K109, R112, R114, K116 to glutamic acid) (mouse). Described as above.
Data set [5] addresses mouse FAM92A BAR domain (amino acids 70-283), untagged (mouse). The description is as above.
Data set [6] deals with mouse FAM92A BAR domain Mu5 (R72, K83, K94 to glutamic acid) (mouse). The data set is described as above.
Data set [7] has as its target mouse FAM92A BAR domain Mu1 (K176, K178, R179 to glutamic acid) (mouse). Described as above.
In data set [8] the target is Trx-Strep-tagged mouse FAM92A BAR domain (amino acids 70-283) (mouse). Kind of data set: BLI; Trx-Strep-tagged FAM92A BAR (1 μM) loaded on Strep-Tactin XT probes, His-tagged CBY1 variants in solution; PBS with 0.02% Tween-20 and 0.2% BSA; 1:1 binding model. On the technique in general: Biolayer interferometry detects binding as a change in optical thickness at a sensor tip.

In data set [9] the target is mouse FAM92A BAR domain (amino acids 70-283), untagged (mouse). The data set can be described thus: ITC; CBY1 variants (200–300 μM) in the syringe, FAM92A BAR or its dimerization mutants (100–120 μM) in the cell; 25 °C; 50 mM Tris pH 7.5, 1 mM DTT, 1 mM EDTA, 100 mM NaCl; one-site binding model. (In general: In ITC the heat of successive injections is recorded.)
For data set [10], the target named is T1, Trx-Strep-tagged mouse FAM92A BAR domain (amino acids 70-283) (mouse).
T1 chain: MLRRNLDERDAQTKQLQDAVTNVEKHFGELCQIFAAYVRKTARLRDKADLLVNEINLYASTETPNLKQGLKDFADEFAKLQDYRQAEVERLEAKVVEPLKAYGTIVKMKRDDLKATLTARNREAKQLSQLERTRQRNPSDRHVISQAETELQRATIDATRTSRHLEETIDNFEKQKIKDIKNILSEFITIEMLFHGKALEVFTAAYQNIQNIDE
Kind of data set: BLI.

Data set [11] deals with the molecule itself. The data set can be described thus: SEC-MALS; typically 200 μl at 70 μM injected; Superose 12 10/300 GL; 50 mM Tris pH 7.5, 1 mM DTT, 1 mM EDTA, 100 mM NaCl.

The stoichiometry N is a count of units in the complex or per binding partner. Molecule “mouse FAM92A BAR domain Mu4 (K169, K183, K194 to glutamic acid) (domain or fragment)” gave a stoichiometry N in data set [1] of 2.
In turn, “Trx-tagged full-length mouse FAM92A (natural protein)” registered a stoichiometry N in data set [2] of 2.
Molecule “mouse FAM92A BAR domain Mu2 (R201, R203, R205 to glutamic acid) (domain or fragment)” yielded a stoichiometry N in data set [3] of 2.
For the molecule “mouse FAM92A BAR domain Mu3 (R108, K109, R112, R114, K116 to glutamic acid) (domain or fragment)”, the stoichiometry N in data set [4] is 2.
Molecule “mouse FAM92A BAR domain (amino acids 70-283), untagged (domain or fragment)” showed a stoichiometry N in data set [5] of 2.
In turn, “mouse FAM92A BAR domain Mu5 (R72, K83, K94 to glutamic acid) (domain or fragment)” came in with a stoichiometry N in data set [6] of 2.
For the molecule “mouse FAM92A BAR domain Mu1 (K176, K178, R179 to glutamic acid) (domain or fragment)”, the stoichiometry N in data set [7] is 2.
Broadly, the Kd is the equilibrium constant for the complex coming apart. As for “MBP-His-tagged mouse CBY1 4E (L77E, L84E, L91E, L98E) (from UniProt Q9D1C2 1-127) (natural protein)”, the Kd in [8] was determined as 5.6 µM; in [9], 2.8 µM.

B1: Trx-His-tagged mouse CBY1 N-terminal region (amino acids 1-70) (domain or fragment)
chain: MPLFGSIFSPKKTPPRKSASLSNLHSLDRSTRELELGLDYGTPTMNLAGQSLKFENGQWVADSVISGGVD
Regarding B1, the Kd in data set [8] was found to be 10 µM; in data set [10] it was 10.8 µM; in [9], 3.6 µM.

B2: MBP-His-tagged full-length mouse Chibby1 (CBY1) (natural protein, UniProt Q9D1C2 1-127, looked up)
chain: MPLFGSIFSPKKTPPRKSASLSNLHSLDRSTRELELGLDYGTPTMNLAGQSLKFENGQWVADSVISGGVDRRETQRLRKRNQQLEEENNLLRLKVDILLDMLSETTAESHLKDKELDELKVTNRRRK
notes: mouse CBY1, GenBank NP_082910.1, amino acids 1-127; also called CBY1 FL; CBY1-FL; source: E. coli BL21 (DE3), purified (Ni-NTA, SEC); not shown: MBP, N-terminal, kept; His6, N-terminal, kept
As for B2, the Kd stood at 0.25 µM in data set [8] and 0.15 µM in data set [9]. Besides, in [11], the “stoichiometry N” value is 2.

B3: Trx-tagged mouse CBY1 coiled-coil domain (amino acids 61-127) (domain or fragment, UniProt Q9D1C2 61-127, looked up)
chain: ADSVISGGVDRRETQRLRKRNQQLEEENNLLRLKVDILLDMLSETTAESHLKDKELDELKVTNRRRK
notes: mouse CBY1, GenBank NP_082910.1, amino acids 61-127 (C-terminal coiled-coil domain); also called CBY1 CC; source: E. coli BL21 (DE3), purified; not shown: Trx, N-terminal, kept
Consider B3, for which the “stoichiometry N” value in data set [11] is 2.
